Measurements reported in IntAct's records for PubMed 11801603.

B1: Baculoviral IAP repeat-containing protein 7 (Homo sapiens), Q96CA5 (parent)
chain: MGPKDSAKCLHRGPQPSHWAAGDGPTQERCGPRSLGSPVLGLDTCRAWDHVDGQILGQLRPLTEEEEEEGAGATLSRGPAFPGMGSEELRLASFYDWPLTAEVPPELLAAAGFFHTGHQDKVRCFFCYGGLQSWKRGDDPWTEHAKWFPSCQFLLRSKGRDFVHSVQETHSQLLGSWDPWEEPEDAAPVAPSVPASGYPELPTPRREVQSESAQEPGGVSPAEAQRAWWVLEPPGARDVEAQLRRLQEERTCKVCLDRAVSIVFVPCGHLVCAECAPGLQLCPICRAPVRSRVRTFLS
partner: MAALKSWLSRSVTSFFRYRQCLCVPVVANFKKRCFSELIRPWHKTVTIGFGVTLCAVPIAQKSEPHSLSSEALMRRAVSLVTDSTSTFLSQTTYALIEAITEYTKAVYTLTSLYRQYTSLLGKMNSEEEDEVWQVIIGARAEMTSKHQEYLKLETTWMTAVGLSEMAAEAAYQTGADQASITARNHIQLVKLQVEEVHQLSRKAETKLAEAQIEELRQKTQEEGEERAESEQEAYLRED
B2: Baculoviral IAP repeat-containing protein 7 (Homo sapiens), Q96CA5 (parent)
chain: B1 chain

Variants of: B1
Details: with dbloh_human DIABLO

| Variant | effect of a mutation on the interaction |
| --- | --- |
| D138A | decreasing interaction |
| D120A | decreasing interaction |

Variants of: B2
Details: with casp9_human CASP9, P55211
casp9_human CASP9, P55211, sequence (P55211 whole entry): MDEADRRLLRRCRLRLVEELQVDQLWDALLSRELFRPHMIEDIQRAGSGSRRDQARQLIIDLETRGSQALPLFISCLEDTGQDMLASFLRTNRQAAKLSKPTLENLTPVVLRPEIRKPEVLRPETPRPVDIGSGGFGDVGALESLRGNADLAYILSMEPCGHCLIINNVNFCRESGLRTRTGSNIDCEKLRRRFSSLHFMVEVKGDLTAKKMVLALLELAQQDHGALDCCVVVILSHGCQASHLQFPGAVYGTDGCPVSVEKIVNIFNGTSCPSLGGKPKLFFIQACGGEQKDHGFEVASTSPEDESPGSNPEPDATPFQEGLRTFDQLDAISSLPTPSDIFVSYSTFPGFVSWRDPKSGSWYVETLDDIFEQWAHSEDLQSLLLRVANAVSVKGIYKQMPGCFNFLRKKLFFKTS

| Variant | effect of a mutation on the interaction |
| --- | --- |
| D138A | decreasing interaction |
